{"source": "IntAct's records for PubMed 21368759", "parents": {"B1": {"name": "Adapter protein MecA 1 (Bacillus subtilis), P37958 (parent)", "chain": "MEIERINEHTVKFYMSYGDIEDRGFDREEIWYNRERSEELFWEVMDEVHEEEEFAVEGPLWIQVQALDKGLEIIVTKAQLSKDGQKLELPIPEDKKQEPASEDLDALLDDFQKEEQAVNQEEKEQKLQFVLRFGDFEDVISLSKLNVNGSKTTLYSFENRYYLYVDFCNMTDEEVENQLSILLEYATESSISIHRLEEYGKLIISEHALETIKKHFAS", "partner": "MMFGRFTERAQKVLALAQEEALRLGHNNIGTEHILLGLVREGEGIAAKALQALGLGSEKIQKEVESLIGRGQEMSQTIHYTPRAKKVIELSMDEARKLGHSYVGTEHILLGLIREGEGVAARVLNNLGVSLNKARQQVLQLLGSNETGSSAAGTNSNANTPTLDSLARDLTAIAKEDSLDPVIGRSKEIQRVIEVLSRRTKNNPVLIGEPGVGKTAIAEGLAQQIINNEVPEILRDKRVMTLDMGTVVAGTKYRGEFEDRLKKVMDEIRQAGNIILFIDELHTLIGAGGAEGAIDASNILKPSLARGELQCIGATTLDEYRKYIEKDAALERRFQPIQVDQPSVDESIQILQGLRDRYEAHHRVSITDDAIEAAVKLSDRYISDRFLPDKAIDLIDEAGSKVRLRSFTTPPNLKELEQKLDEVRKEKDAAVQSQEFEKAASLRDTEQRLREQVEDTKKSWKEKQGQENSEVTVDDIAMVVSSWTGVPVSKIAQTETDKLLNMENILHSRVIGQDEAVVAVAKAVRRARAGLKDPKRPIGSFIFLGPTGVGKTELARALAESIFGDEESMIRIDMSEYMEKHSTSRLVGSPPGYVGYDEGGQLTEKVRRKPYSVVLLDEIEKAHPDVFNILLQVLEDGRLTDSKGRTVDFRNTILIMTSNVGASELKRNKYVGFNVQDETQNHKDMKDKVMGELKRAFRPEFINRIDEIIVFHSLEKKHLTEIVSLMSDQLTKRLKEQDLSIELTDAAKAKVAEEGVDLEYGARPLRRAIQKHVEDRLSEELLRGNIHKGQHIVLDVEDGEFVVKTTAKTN"}}, "data": [{"variants_of": "B1", "conditions": "with clpc_bacsu clpC", "values": [{"variant": "MEIERINEHTVKFYMSYGDIEDRGFDREEIWYNRERSEELFWEVMDEVHEEEEFAVEGPLWIQVQALDKGLEIIVTKAQLSKDGQKLELPIPEDKKQEPASEDLDALLDDFQKEEQAVNQEEKEQKLQFVLRFGDFEDVISLSKLNVNGSKTTLYSFENRYYLYVDFCNMTDEEVENQLSILLRYATESSISIHRLEEYGKLIISEHALETIKKHFAS", "note": "[E184R]", "effect of a mutation on the interaction": "disrupting interaction"}]}]}
